± gives the uncertainty stated by the source.
Test: self-splicing fitness, log relative to wild type (ln ratio); higher = more splicing; Tetrahymena group I intron in knt gene, E. coli kanamycin selection, DiMSum; sequences stand for … in CUCUCU…GGAGGGAAAAGUUAUCAGGCAUGCACCUGGUAGCUAGUCUUUAAACCAAUAGAUUGCAUCGGUUUAAAAGGCAAGACCGUCAAAUUGCGGGAAAGGGGUCAACAGCCGUUCAGUACCAAGUCUCAGGGGAAACUUUGAGAUGGCCUUGCAAAGGGUAUGGUAAUAAGCUGACGGACAUGGUCCUAACCACGCAGCCAAGUCCUAAGUCAACAGAUCUUCUGUUGAUAUGGAUGCAGUUCACAGACUAAAUGUCGGUCGGGGAAGAUGUAUUCUUCUCAUAAGAUAUAGUCGGACCUCUCCUUAAUGGGAGCUAGCGGAUGAAGUGAUGCAACACUGGAGCCGCUGGGAACUAAUUUGUAUGCGAAAGUAUAUUGAUUAGUUUUGGAGUACUCGUGGUCG
Summary of the method: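 DiMSum derived fitness as the error-weighted combination of fold changes across replicates, kanamycin versus no kanamycin, normalised to wild type. E. coli BL21(DE3) held the library, which randomised all eight P1ex-region intron nucleotides within the knt kanamycin-resistance gene on pET-22b(+). Six replicate transformations grew overnight at 37°C or 30°C on LB agar with or without 25 μg/mL kanamycin, also containing 100 μg/mL carbenicillin, 50 μM IPTG and 0.2% rhamnose, and pooled colonies were amplicon-sequenced on an Illumina HiSeq 2500.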

| Sequence | self-splicing fitness (ln) (30 °C) | self-splicing fitness (ln) (37 °C) |
| --- | --- | --- |
| CGUGAGCAAUAUUACGCCUC | -2.12 ± 0.31 | -1.07 ± 0.4 |
| CGUGAGCAAUAUUACGCCUG | -1.76 ± 0.26 | -0.852 ± 0.36 |
| CGUGAGCAAUAUUACGCUAA |  | -1.26 ± 0.48 |
| CGUGAGCAAUAUUACGGAGU | -3.12 ± 0.23 | -1.14 ± 0.4 |
| CGUGAGCAAUAUUACGGCAU | -2.59 ± 0.11 | -2.28 ± 0.16 |
| CGUGAGCAAUAUUACGGCUC | -3.79 ± 0.42 | -1.23 ± 0.27 |
| CGUGAGCAAUAUUACGGGGC | -3.54 ± 0.28 | -2.03 ± 0.2 |
| CGUGAGCAAUAUUACGGUCA | -3.84 ± 0.25 | -2.12 ± 0.16 |
| CGUGAGCAAUAUUACGGUUU | -3.81 ± 0.18 | -3.28 ± 0.22 |
| CGUGAGCAAUAUUACGUAGC | -1.15 ± 0.34 | -1.28 ± 0.35 |
| CGUGAGCAAUAUUACGUUAU | -4.44 ± 0.36 | -2.38 ± 0.18 |
| CGUUAGCAAUAUUACGAAGU | -2.41 ± 0.34 | -1.29 ± 0.3 |
| CGUUAGCAAUAUUACGAGCU | -1.25 ± 0.064 | -0.739 ± 0.082 |
| CGUUAGCAAUAUUACGAGUG | -1.18 ± 0.078 | 0.184 ± 0.094 |
| CGUUAGCAAUAUUACGAGUU | -2.98 ± 0.36 | -2.27 ± 0.45 |
| CGUUAGCAAUAUUACGAUUC | -3.09 ± 0.19 | -1.68 ± 0.18 |
| CGUUAGCAAUAUUACGAUUU | -2.51 ± 0.27 | -1.66 ± 0.25 |
| CGUUAGCAAUAUUACGCACC | -1.94 ± 0.35 | -1.79 ± 0.48 |
| CGUUAGCAAUAUUACGCACG | -1.99 ± 0.31 |  |
| CGUUAGCAAUAUUACGCCCA | -1.43 ± 0.16 | 0.14 ± 0.18 |
| CGUUAGCAAUAUUACGCCGU |  | -0.993 ± 0.44 |
| CGUUAGCAAUAUUACGCGAU | -2.89 ± 0.16 | -3.12 ± 0.32 |
| CGUUAGCAAUAUUACGCUAA |  | 0.0733 ± 0.29 |
| CGUUAGCAAUAUUACGGAAA | -1.93 ± 0.38 | -2.11 ± 0.31 |
| CGUUAGCAAUAUUACGGACU | -0.292 ± 0.08 | 0.16 ± 0.11 |

| Sequence | self-splicing fitness (ln) (30 °C) | self-splicing fitness (ln) (37 °C) |
| --- | --- | --- |
| CGUUAGCAAUAUUACGGCAU | -2.01 ± 0.11 | -1.13 ± 0.12 |
| CGUUAGCAAUAUUACGGCUC | -1.75 ± 0.33 | 0.277 ± 0.22 |
| CGUUAGCAAUAUUACGGGAA | -2.14 ± 0.17 | -2.36 ± 0.28 |
| CGUUAGCAAUAUUACGUGCA | -1.38 ± 0.11 | -0.0413 ± 0.11 |
| CGUUAGCAAUAUUACGUGGG | -1.39 ± 0.12 | -1.79 ± 0.16 |
| CGUUAGCAAUAUUACGUUAA | -3.44 ± 0.23 | -3.24 ± 0.28 |
| CGUUAGCAAUAUUACGUUAU | -2.76 ± 0.34 | -2.18 ± 0.37 |
| CUAAAGCAAUAUUACGAAAU | -3.55 ± 0.28 | -2.01 ± 0.46 |
| CUAAAGCAAUAUUACGAGCG | 0.136 ± 0.057 | 0.289 ± 0.073 |
| CUAAAGCAAUAUUACGAGCU | -4.12 ± 0.26 | -2.82 ± 0.38 |
| CUAAAGCAAUAUUACGAUUG | -0.545 ± 0.053 | -0.596 ± 0.06 |
| CUAAAGCAAUAUUACGCCCG | 0.465 ± 0.11 | -0.0373 ± 0.12 |
| CUAAAGCAAUAUUACGCCGA | -3.46 ± 0.24 | -2.42 ± 0.25 |
| CUAAAGCAAUAUUACGCCUA | -3.27 ± 0.23 |  |
| CUAAAGCAAUAUUACGCGUU | -3.08 ± 0.13 | -2.67 ± 0.27 |
| CUAAAGCAAUAUUACGCUCU | -2.94 ± 0.41 |  |
| CUAAAGCAAUAUUACGGAGA | -2.83 ± 0.16 | -2.79 ± 0.29 |
| CUAAAGCAAUAUUACGGCCA | -3.21 ± 0.31 | -2.08 ± 0.4 |
| CUAAAGCAAUAUUACGGCCG | 0.821 ± 0.14 | 0.575 ± 0.21 |
| CUAAAGCAAUAUUACGGCUG | 0.0357 ± 0.069 | -0.0492 ± 0.089 |
| CUAAAGCAAUAUUACGUACC |  | -2.03 ± 0.46 |
| CUAAAGCAAUAUUACGUCGG | -0.261 ± 0.061 | -0.189 ± 0.078 |
| CUAAAGCAAUAUUACGUCUA | -4.21 ± 0.27 | -2.2 ± 0.22 |
| CUAAAGCAAUAUUACGUGUG | -0.323 ± 0.049 | 0.387 ± 0.06 |
| CUAAAGCAAUAUUACGUUCU | -4.08 ± 0.24 | -3.07 ± 0.26 |
